From patent US20070049521A1 come the findings set out here.

In test [1] the target is human NPR-C (natriuretic peptide receptor C, clearance receptor), overexpressed on HEK293 cells (human) (UniProt P17342). Kind of test: cell-based or functional assay.
The target in test [2] is NPR-C on ATDC5 cells (mouse chondrogenic cell line) (mouse) (UniProt P70180). Kind of test: displacement of 125I-Ostn[83-133] from ATDC5 cells. In general terms: Loss of bound radioactivity is the signal in a displacement assay; it reports binding, not function.
Sequence of NPR-C on ATDC5 cells (mouse chondrogenic cell line) (mouse) (P70180 41-536): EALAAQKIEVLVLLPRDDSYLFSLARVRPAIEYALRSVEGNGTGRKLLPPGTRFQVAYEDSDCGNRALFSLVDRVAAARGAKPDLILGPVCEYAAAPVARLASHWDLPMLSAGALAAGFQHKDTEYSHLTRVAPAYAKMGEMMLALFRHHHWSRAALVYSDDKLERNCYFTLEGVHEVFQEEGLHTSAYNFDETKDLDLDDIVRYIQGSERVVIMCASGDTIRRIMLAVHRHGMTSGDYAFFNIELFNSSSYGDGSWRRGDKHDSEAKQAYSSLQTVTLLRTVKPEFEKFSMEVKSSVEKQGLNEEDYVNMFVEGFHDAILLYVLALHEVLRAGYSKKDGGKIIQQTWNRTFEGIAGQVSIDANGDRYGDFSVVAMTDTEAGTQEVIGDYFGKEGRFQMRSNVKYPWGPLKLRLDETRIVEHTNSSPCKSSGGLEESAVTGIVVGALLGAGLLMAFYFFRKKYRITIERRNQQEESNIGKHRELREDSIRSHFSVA

Sequence of human NPR-C (natriuretic peptide receptor C, clearance receptor), overexpressed on HEK293 cells (human) (P17342 27-541): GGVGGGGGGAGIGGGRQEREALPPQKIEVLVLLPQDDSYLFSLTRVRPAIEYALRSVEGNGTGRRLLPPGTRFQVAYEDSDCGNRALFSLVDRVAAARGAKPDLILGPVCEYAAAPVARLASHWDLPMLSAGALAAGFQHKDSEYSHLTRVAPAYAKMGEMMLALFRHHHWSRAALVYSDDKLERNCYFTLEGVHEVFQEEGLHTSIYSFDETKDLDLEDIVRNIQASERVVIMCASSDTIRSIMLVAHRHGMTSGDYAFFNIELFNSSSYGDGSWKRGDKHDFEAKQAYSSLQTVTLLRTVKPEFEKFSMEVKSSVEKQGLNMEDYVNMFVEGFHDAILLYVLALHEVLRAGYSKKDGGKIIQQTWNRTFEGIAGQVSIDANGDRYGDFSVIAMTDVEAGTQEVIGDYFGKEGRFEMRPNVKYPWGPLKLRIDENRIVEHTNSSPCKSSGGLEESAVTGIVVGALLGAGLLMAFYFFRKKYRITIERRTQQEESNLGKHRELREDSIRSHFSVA

Take “N-terminal 6 histidine-tagged recombinant human Ostn rhOstn[27-133] (from UniProt G7NYP9 27-133) (ligand)”: in test [1], the cGMP levels of NPR-C-expressing HEK293 cells with 0.1 nM ANP and 10 nM rhOstn[27-133] came to 8 fold.

Consider rat C-ANF (peptide), for which, in test [2], the IC50 turned out to be 6.7 nM and the maximal inhibition at 1 µM, difference from that of cold Ostn[83-133] was found to be 15 % less.

Broadly, the IC50 is the point on the concentration scale where inhibition reaches its midpoint.
